# Experimental data as given in IntAct's records for PubMed 7657594.
# B1: Vascular endothelial growth factor receptor 1 (Homo sapiens), P17948 (parent)
# chain: MVSYWDTGVLLCALLSCLLLTGSSSGSKLKDPELSLKGTQHIMQAGQTLHLQCRGEAAHKWSLPEMVSKESERLSITKSACGRNGKQFCSTLTLNTAQANHTGFYSCKYLAVPTSKKKETESAIYIFISDTGRPFVEMYSEIPEIIHMTEGRELVIPCRVTSPNITVTLKKFPLDTLIPDGKRIIWDSRKGFIISNATYKEIGLLTCEATVNGHLYKTNYLTHRQTNTIIDVQISTPRPVKLLRGHTLVLNCTATTPLNTRVQMTWSYPDEKNKRASVRRRIDQSNSHANIFYSVLTIDKMQNKDKGLYTCRVRSGPSFKSVNTSVHIYDKAFITVKHRKQQVLETVAGKRSYRLSMKVKAFPSPEVVWLKDGLPATEKSARYLTRGYSLIIKDVTEEDAGNYTILLSIKQSNVFKNLTATLIVNVKPQIYEKAVSSFPDPALYPLGSRQILTCTAYGIPQPTIKWFWHPCNHNHSEARCDFCSNNEESFILDADSNMGNRIESITQRMAIIEGKNKMASTLVVADSRISGIYICIASNKVGTVGRNISFYITDVPNGFHVNLEKMPTEGEDLKLSCTVNKFLYRDVTWILLRTVNNRTMHYSISKQKMAITKEHSITLNLTIMNVSLQDSGTYACRARNVYTGEEILQKKEITIRDQEAPYLLRNLSDHTVAISSSTTLDCHANGVPEPQITWFKNNHKIQQEPGIILGPGSSTLFIERVTEEDEGVYHCKATNQKGSVESSAYLTVQGTSDKSNLELITLTCTCVAATLFWLLLTLFIRKMKRSSSEIKTDYLSIIMDPDEVPLDEQCERLPYDASKWEFARERLKLGKSLGRGAFGKVVQASAFGIKKSPTCRTVAVKMLKEGATASEYKALMTELKILTHIGHHLNVVNLLGACTKQGGPLMVIVEYCKYGNLSNYLKSKRDLFFLNKDAALHMEPKKEKMEPGLEQGKKPRLDSVTSSESFASSGFQEDKSLSDVEEEEDSDGFYKEPITMEDLISYSFQVARGMEFLSSRKCIHRDLAARNILLSENNVVKICDFGLARDIYKNPDYVRKGDTRLPLKWMAPESIFDKIYSTKSDVWSYGVLLWEIFSLGGSPYPGVQMDEDFCSRLREGMRMRAPEYSTPEIYQIMLDCWHRDPKERPRFAELVEKLGDLLQANVQQDGKDYIPINAILTGNSGFTYSTPAFSEDFFKESISAPKFNSGSSDDVRYVNAFKFMSLERIKTFEELLPNATSMFDDYQGDSSTLLASPMLKRFTWTDSKPKASLKIDLRVTSKSKESGLSDVSRPSFCHSSCGHVSEGKRRFTYDHAELERKIACCSPPPDYNSVVLYSTPPI
# Variants of: B1
# Settings: with p85a_human PIK3R1, P27986
# p85a_human PIK3R1, P27986, sequence (P27986 whole entry): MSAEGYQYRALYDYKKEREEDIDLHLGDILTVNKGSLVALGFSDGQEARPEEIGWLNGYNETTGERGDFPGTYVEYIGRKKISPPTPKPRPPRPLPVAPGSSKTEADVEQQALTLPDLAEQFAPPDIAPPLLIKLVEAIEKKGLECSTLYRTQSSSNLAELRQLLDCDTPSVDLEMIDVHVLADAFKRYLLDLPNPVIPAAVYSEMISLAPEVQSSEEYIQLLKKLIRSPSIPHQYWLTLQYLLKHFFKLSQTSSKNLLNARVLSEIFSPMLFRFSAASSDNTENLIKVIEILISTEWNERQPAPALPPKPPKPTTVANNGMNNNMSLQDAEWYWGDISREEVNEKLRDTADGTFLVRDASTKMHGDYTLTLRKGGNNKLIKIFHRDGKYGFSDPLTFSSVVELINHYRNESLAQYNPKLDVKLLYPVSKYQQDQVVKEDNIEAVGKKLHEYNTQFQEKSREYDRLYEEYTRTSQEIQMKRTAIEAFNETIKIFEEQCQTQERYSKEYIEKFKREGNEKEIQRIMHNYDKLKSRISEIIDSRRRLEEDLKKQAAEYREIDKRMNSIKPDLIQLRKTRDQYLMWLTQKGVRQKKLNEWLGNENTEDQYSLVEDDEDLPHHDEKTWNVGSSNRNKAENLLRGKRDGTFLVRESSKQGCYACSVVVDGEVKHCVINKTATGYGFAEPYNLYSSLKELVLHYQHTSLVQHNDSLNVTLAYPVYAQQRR
row,effect of a mutation on the interaction,Variant
1,with no effect,Y1327F
2,with no effect,Y1309F

# Further lines, the variant ahead of its results:
row,Variant,effect of a mutation on the interaction
1,K861A,disrupting interaction
2,Y1124F;Y1184F;Y1333F,with no effect
3,Y1130F,decreasing interaction

# Variants of: B1
# Settings: with p85a_human PIK3R1, P27986
# Remark: another data set of the same source
row,effect of a mutation on the interaction,Variant
1,with no effect,Y1130F
2,disrupting interaction,Y1213F
